Results: the supplement of paper PMC10567573

B1: SNX8 (parent)
chain: RMVPALPPKRMLGADREFIEARRR
B2: ANKRD40 (parent)
chain: VCCCELGVNPDQVEKIRKLPNTLL

Variants of: B1
Test: protein stability index of a GFP-peptide fusion (GPS, HEK-293T) (PSI 1-6); higher = more stable
Details: c terminus: a fixed tail appended
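Further: lentivirally expressed fusions sorted by FACS into six bins by GFP to DsRed ratio, PSI derived from sequencing read proportions per bin multiplied by bin number.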

Protein stability index of substitutions, site by site:
V3: A 3.31, D 4.63, G 3.07, E 4.49, H 3.54, C 3.5, F 2.99
R1: P 3.83, C 3.28, A 3.86, I 3.21, N 2.71, S 3.8, V 3.18, G 3.77, K 3.74, F 2.22, Q 3.54, E 3.56, Y 1.81, L 1.96, W 1.94, H 2.3, D 2.87, T 2.69, M 2.88
M2: F 3.44, A 3.94, V 3.58, Y 3.57, R 3.94, N 3.99, Q 4.57, G 3.83, C 3.22, I 3.01, W 2.14, P 4.53, D 4.17, E 4.52, L 2.76, H 4.04, T 4.08, K 4.1, S 4.46

Variants of: B2
Test: as above
Details: c terminus: a fixed tail appended

Protein stability index: each site, then its substitutions
K15: D 2.17, H 1.36, E 2.81, P 2.07, C 1.33, Y 2.09, L 2.34, R 2.21, I 1.39, N 1.94, Q 2.23, S 2.34, V 2.12, F 2.06, G 1.41, T 1.66, M 1.76, A 1.68, W 2.53
N21: Q 1.74, F 1.95, P 1.83, W 1.32, S 1.9, D 2.43, E 2.02, R 1.34, V 1.83, T 2.04, K 3.13, H 1.83, G 1.45, C 2.21, L 1.94, M 1.84, A 1.7, I 2.15, Y 2.47
N9: T 1.68, V 1.75, R 1.92, S 2.3, Y 1.78, P 2, Q 1.62, W 2.8
E14: C 1.71, L 2.13, M 1.53, T 1.68, H 2.08, V 1.45, A 2.3, S 1.45, W 2.21, P 2.95, R 1.05, Y 2.09, K 1.48, N 1.91, D 1.66, Q 1.48, G 1.89
L19: C 2.34, R 2.5, S 2.17, K 2.48, W 2.73, M 2.1, F 1.57, P 1.91, A 2.12, N 2.23, T 2.33, H 1.79, E 2.73, Q 2.5, I 2.25, V 2.62, Y 1.76, D 2.9, G 3.13
R17: A 1.81, T 1.47, D 2.21, F 1.92, I 3.09, P 2.15, C 1.46, E 2.31, Y 1.92, K 2.29, M 1.9, H 2.23, G 1.45, W 1.74, N 1.67, S 1.94, L 1.78, V 1.82, Q 1.62
D11: K 1.89, N 1.42, E 2.18, A 1.79, R 2.63, P 1.24, I 1.93, Q 1.63, G 2.17, V 1.46, L 1.91, T 1.69, Y 2.55, C 2.01, W 1.98, M 2.41, F 1.49, S 1.9, H 1.26
L23: M 1.89, Y 1.45, H 2.67, T 2.33, I 1.6, E 3.05, R 1.66, F 1.51, A 1.98, P 2.75, V 2.25, K 2.36, G 2.51, D 2.31, C 1.71, S 2.25, W 2.9, N 2.05, Q 2.35
L24: M 1.8, D 3.15, W 2.1, A 1.71, E 2.62, G 2.56, H 2.02, V 1.96, P 2.12, T 1.94, N 2.61, Q 2.48, C 2.12, K 2.09, I 1.95, S 2.49, Y 1.84, R 1.38, F 2.04
P10: K 2.02, Y 1.31, L 2.17, F 2.23, S 1.89, C 1.94, R 2.35, N 2, Q 2.02, G 2.17, D 2.2, A 2.14, W 1.88, H 2, I 1.8, T 1.98, V 2.01, M 1.55, E 2.11
T22: I 2.06, M 2.1, W 2.01, A 2.09, H 1.8, C 1.72, V 1.33, K 2.1, S 1.79, R 2.02, F 2.2, D 2.5, L 2.73, P 2.21, Q 1.63, G 1.51, N 1.71, Y 1.63, E 2.64
I16: F 1.69, A 3.14, S 2.08, H 1.98, Q 2.32, M 1.67, P 2.89, L 1.56, G 2.01, W 2.13, R 2.12, T 2.56, Y 1.51, V 2.38, D 2.76, N 3.14, C 2.22, K 2.53, E 3.09
K18: A 1.26, H 2.95, I 1.43, D 2.08, F 2.53, W 1.75, P 1.59, Y 1.31, L 1.72, N 1.64, T 1.89, V 2.15, G 1.53, S 2.08, R 2.18, C 1.75, E 2.03, Q 1.54, M 1.68
V13: A 1.71, L 1.64, N 2.38, R 2.27, S 2.05, C 1.91, Y 1.84, G 2.5, H 1.77, M 1.67, E 2.78, F 1.4, P 2.18, T 1.76, D 3.11, K 2.25, W 2.07, Q 2.42, I 1.75
Q12: H 1.42, L 2.52, R 1.67, V 2.24, E 2.16, P 1.86, Y 1.21, A 2.09, F 2.14, D 2.29, M 2.03, G 2.07, K 1.76, C 2.06, S 2.3, W 2.29, I 2.38, N 1.75, T 1.76
P20: M 1.57, T 2.2, C 1.38, S 1.95, H 2.55, V 1.82, L 2.02, Y 2.23, N 2.3, R 1.91, I 1.38, D 1.48, Q 1.87, E 1.4, A 1.88, G 2.08, K 1.95
